Test results published in doi:10.1101/2022.03.14.484276.

Biological target: BsaXI S subunit (specificity subunit), WT TRD1-CR1-TRD2-CR2 (Bacillus stearothermophilus 25B (Geobacillus sp. 25B))
Assay: co-purification through chromatography columns

stoichiometry N: 2 RM per S
Substance: BsaXI RM subunit (restriction-modification fusion subunit) (enzyme)
